Where two headings read alike, the source gives them in different places. Bridge positions count the residues as written; N and C are the ends. Square brackets hold non-standard residues; d marks the D form. Ends that are not written are not given here. NMeL = CN[C@@H](CC(C)C)C(=O)O; Pen = CC(C)(S)[C@H](N)C(=O)O; NMeA = CN[C@@H](C)C(=O)O; Ava = NCCCCC(=O)O; Sar = CNCC(=O)O

For test [1], the target named is T1, soluble human FcRn (human, UniProt P55899 24-297; P61769 21-119, biotinylated (Sulfo-NHS-LC-Biotin) in the ELISA; amine-coupled to CM5 chip in SPR).
T1 construct: also called shFcRn; biotinylated shFcRn
The test can be described thus: SPR, pH 6.
Experimental: (§1) The following steps were performed to cross-link soluble human or cynomolgus FcRn to the dextran surface of a CM5 sensor chip (Biacore AB, Uppsala, Sweden) by an amine coupling reaction involving 1-ethyl-(3-dimethylaminopropyl)-carbodiimide hydrochloride (EDC) (Biacore AB, Uppsala, Sweden) and N-hydroxysuccinimide (NHS) (Biacore AB, Uppsala, Sweden) as recommended by Biacore (BIAapplications Handbook, version AB, section 4.2, Biacore AB, Uppsala, Sweden). […] Residual sites on the FcRn flow cell were blocked with 1 M ethanolamine hydrochloride pH 8.5 (Biacore AB, Uppsala, Sweden). A control flow cell was blocked with ethanolamine for reference subtraction. For analysis of the monomeric peptides, FcRn was coated to a final density of 4000-5000 response units (RU). For analysis of the peptide dimers, FcRn was coated to a density of 2000-2500 RU. All SPR measurements were performed using a BIACORE 3000 Instrument (Biacore AB Uppsala, Sweden). For measurements done at either pH 6 or pH 7.4, experiments were performed in 50 mM phosphate, 100 mM sodium chloride, 0.01% surfactant P20 (Biacore AB, Uppsala, Sweden).
(§2) Ten, 2-fold dilutions of the peptide were injected over the FcRn-CM5 chip at a rate of 20 μl/min for 2 min. The peptide was dissociated from the chip for 2.5 minutes with buffer. Any remaining peptide was removed from the chip with a 30 second injection of HBS-P buffer (Biacore AB, Uppsala, Sweden) at a rate of 30 μl/min. Sensorgrams were generated and analyzed using BiaEval software version 3.1 (Biacore AB, Uppsala, Sweden). The equilibrium RU observed for each injection was plotted against concentration. The equilibrium KD values were derived by analysis of the plots using the steady state affinity model included in the BiaEval software.

Test [2] concerns the target T1, soluble human FcRn. Kind of test: ELISA, competitor human IgG. For orientation: An ELISA detects its analyte on a solid surface through an enzyme-linked reagent.
Experimental: (§3) The wells were coated with 100 μl/well of 1 μg/ml biotinylated-shFcRn in Buffer A. The plate was sealed and incubated at 37° C. for 2 hours. Afterwards, the plate washed with 200 μl/well of Buffer B (Buffer B: 100 mM MES pH 6, 150 mM NaCl, 0.5% BSA IgG-free (Jackson ImmunoResearch, West Grove, Pa.), 0.05% Tween-20). […] To allow for mixing, the plate was rocked for 2 minutes, sealed and incubated at 37° C. for 2 hours. […] The plate was covered, incubated for 30 minutes at room temperature and washed 4 times with 200 μl/well of ice-cold buffer B. SureBlue TMB substrate solution (100 μl/well, KPL, Gaithersburg, Md.) was added and the plate was allowed to incubate at room temperature until color developed, which took 5 to 10 minutes. Once color developed, 100 μl/well of TMB stop solution (KPL, Gaithersburg, Md.) was added and the absorbance was measured at 450 nm. The data was plotted as absorbance vs. peptide concentration to derive the inhibitory concentration 50% (IC₅₀) values.
The target of test [3] is T1, soluble human FcRn. The test can be described thus: SPR, pH 6. This is another data set of the same source. On the technique in general: In SPR one partner is held on a chip, and binding of the other changes the refractive index at the surface.
Experimental: as §1
Ten, 2-fold dilutions of the peptide were injected over the FcRn-CM5 chip at a rate of 20 μl/min for 2 min. The peptide was dissociated from the chip for 2.5 minutes with buffer. […] Sensorgrams were generated and analyzed using BiaEval software version 3.1 (Biacore AB, Uppsala, Sweden). […]
The target of test [4] is T1, soluble human FcRn. The test can be described thus: ELISA, competitor human IgG. This is another data set of the same source.
Experimental: as §3
Test [5] addresses T1, soluble human FcRn. Kind of test: ELISA, competitor human IgG. This is another data set of the same source.
Experimental: as §3
The target in test [6] is T1, soluble human FcRn. Kind of test: SPR, pH 6. This is another data set of the same source.
Experimental: as §1, §2
For test [7], the target named is T1, soluble human FcRn. The test can be described thus: ELISA, competitor human IgG. This is another data set of the same source.
Experimental: as §3
Test [8] concerns the target T1, soluble human FcRn. The test can be described thus: ELISA, competitor human IgG. The source holds these as a separate data set.
Experimental: as §3
The target in test [9] is T1, soluble human FcRn. Kind of test: SPR, pH 6. This is another data set of the same source.
Experimental: as §1, §2
The target in test [10] is T1, soluble human FcRn. The test can be described thus: SPR, pH 7.4.
Experimental: as §1, §2
The target of test [11] is T1, soluble human FcRn. Kind of test: SPR, pH 6. The source holds these as a separate data set.
Experimental: as §1, §2
The target of test [12] is T1, soluble human FcRn. The test can be described thus: SPR, pH 7.4. The source holds these as a separate data set.
Experimental: as §1, §2
For test [13], the target named is T1, soluble human FcRn. Kind of test: ELISA, competitor human IgG. The source holds these as a separate data set.
Experimental: as §3
Test [14] has as its target T1, soluble human FcRn. The test can be described thus: SPR, pH 7.4. This is another data set of the same source.
Experimental: as §1, §2
Test [15] concerns the target T1, soluble human FcRn. Kind of test: SPR, pH 6. The source holds these as a separate data set.
Experimental: as §1, §2
Test [16] has as its target T1, soluble human FcRn. Kind of test: ELISA, competitor human IgG. This is another data set of the same source.
Experimental: as §3
The target in test [17] is T1, soluble human FcRn. Kind of test: ELISA, competitor human IgG. This is another data set of the same source.
Experimental: as §3
Test [18] concerns the target T1, soluble human FcRn. Kind of test: ELISA, competitor human IgG. The source holds these as a separate data set.
Experimental: as §3
The target of test [19] is T1, soluble human FcRn. The test can be described thus: SPR, pH 7.4. The source holds these as a separate data set.
Experimental: as §1, §2
Test [20] deals with T1, soluble human FcRn. Kind of test: ELISA, competitor human IgG. The source holds these as a separate data set.
Experimental: as §3
In test [21] the target is T1, soluble human FcRn. Kind of test: SPR, pH 6. This is another data set of the same source.
Experimental: as §1, §2

T1 sequence (P55899 24-297 limits assumed, chain 1 of 2): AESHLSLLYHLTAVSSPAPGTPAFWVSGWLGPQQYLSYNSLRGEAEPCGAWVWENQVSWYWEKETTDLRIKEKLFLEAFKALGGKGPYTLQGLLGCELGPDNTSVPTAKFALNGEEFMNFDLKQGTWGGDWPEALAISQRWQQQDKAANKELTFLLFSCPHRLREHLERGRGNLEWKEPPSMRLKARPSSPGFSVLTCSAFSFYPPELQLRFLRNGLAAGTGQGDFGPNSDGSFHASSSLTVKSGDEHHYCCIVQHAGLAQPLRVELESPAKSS
T1 sequence (P61769 21-119 limits assumed, chain 2 of 2): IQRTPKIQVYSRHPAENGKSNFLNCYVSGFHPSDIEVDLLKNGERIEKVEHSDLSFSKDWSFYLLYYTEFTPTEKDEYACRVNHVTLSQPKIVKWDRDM

B1: Peptide No. 105 (peptide)
peptide: QRFDTGHFG[dA]LYPKNGP-NH2
modifications: lactam 4-14; N-terminus assumed
SMILES: CC(C)C[C@@H]1NC(=O)[C@@H](C)NC(=O)CNC(=O)[C@H](Cc2ccccc2)NC(=O)[C@H](Cc2c[nH]cn2)NC(=O)CNC(=O)[C@H]([C@@H](C)O)NC(=O)[C@@H](NC(=O)[C@H](Cc2ccccc2)NC(=O)[C@H](CCCNC(=N)N)NC(=O)[C@@H](N)CCC(N)=O)CC(=O)NCCCC[C@@H](C(=O)N[C@@H](CC(N)=O)C(=O)NCC(=O)N2CCC[C@H]2C(N)=O)NC(=O)[C@@H]2CCCN2C(=O)[C@H](Cc2ccc(O)cc2)NC1=O
As to B1, in the test with soluble human FcRn [1], the Kd – broadly, the constant that tells how readily two partners part at equilibrium – was 2.1 µM.

B2: Peptide No. 35 (peptide)
peptide: QRFCTGHF[Ava]LYPCNGP-NH2
modifications: disulfide 4-13; N-terminus assumed
SMILES: CC(C)C[C@@H]1NC(=O)CCCCNC(=O)[C@H](Cc2ccccc2)NC(=O)[C@H](Cc2c[nH]cn2)NC(=O)CNC(=O)[C@H]([C@@H](C)O)NC(=O)[C@@H](NC(=O)[C@H](Cc2ccccc2)NC(=O)[C@H](CCCNC(=N)N)NC(=O)[C@@H](N)CCC(N)=O)CSSC[C@@H](C(=O)N[C@@H](CC(N)=O)C(=O)NCC(=O)N2CCC[C@H]2C(N)=O)NC(=O)[C@@H]2CCCN2C(=O)[C@H](Cc2ccc(O)cc2)NC1=O
As to B2, the IC50 (usually the concentration that inhibits the measured activity by half) in the test with soluble human FcRn [2] is more than 125 µM.
With RFXTGHFGPLYPC (Pen at 3; D-Pro at 9; disulfide; C-terminal amide) [Peptide No. 142], the Kd with soluble human FcRn [3] turned out to be 0.14 µM. Also, the IC50 in the test with soluble human FcRn [4] came to 1.5 µM.
QRFXTGHFGGLYPENGP (Dab at 4; side-chain lactam bridge Dab 4-Glu 14; C-terminal amide) [Peptide No. 72]: in the test with soluble human FcRn [1], the Kd is 4.8 µM. In the test with soluble human FcRn [5], the IC50 came out at 81 µM.

B3: Peptide No. 213 (peptide)
peptide: QRF[Pen][NMeA]GHFGGLYPCNGP-NH2
modifications: disulfide 4-14; N-terminus assumed
SMILES: CC(C)C[C@@H]1NC(=O)CNC(=O)CNC(=O)[C@H](Cc2ccccc2)NC(=O)[C@H](Cc2c[nH]cn2)NC(=O)CNC(=O)[C@H](C)N(C)C(=O)[C@@H](NC(=O)[C@H](Cc2ccccc2)NC(=O)[C@H](CCCNC(=N)N)NC(=O)[C@@H](N)CCC(N)=O)C(C)(C)SSC[C@@H](C(=O)N[C@@H](CC(N)=O)C(=O)NCC(=O)N2CCC[C@H]2C(N)=O)NC(=O)[C@@H]2CCCN2C(=O)[C@H](Cc2ccc(O)cc2)NC1=O
In the test with soluble human FcRn [6], B3 showed a Kd of 1 µM. This molecule returned an IC50 in the test with soluble human FcRn [7] of 5.5 µM.
AGKIICSPGHFGGMYCQGKGTGGGK-NH2 (disulfide 6-16 (inferred)) [SEQ ID NO:8] registered an IC50 in the test with soluble human FcRn [8] of 64 µM. Further, binding in the test with soluble human FcRn [9] was characterised by a dissociation constant (Kd) of 22 µM.
For the molecule AGPSYCIEGHIDGIYCFNAGTGGGK-NH2 (disulfide 6-16 (inferred)) [SEQ ID NO:9], the figures for the Kd with soluble human FcRn [10] and with soluble human FcRn [9] were 76 µM and 8.8 µM, respectively. The molecule further showed an IC50 with soluble human FcRn [8] of 49 µM.
As to AGQRFCTGHFGGLYPCNGPGTGGGK-NH2 (disulfide 6-16 (inferred)) [SEQ ID NO:6], the Kd is 45 µM with soluble human FcRn [10], 5.7 µM with soluble human FcRn [11], 45 µM with soluble human FcRn [12] and 5.7 µM with soluble human FcRn [9]. Further, the IC50 with soluble human FcRn [8] and with soluble human FcRn [13] was 36 µM throughout.

B4: Peptide No. 177 (peptide)
peptide: QRFVTGHFG[dP]WYPANGP-NH2
modifications: N-terminus assumed
SMILES: CC(C)[C@H](NC(=O)[C@H](Cc1ccccc1)NC(=O)[C@H](CCCNC(=N)N)NC(=O)[C@@H](N)CCC(N)=O)C(=O)N[C@H](C(=O)NCC(=O)N[C@@H](Cc1c[nH]cn1)C(=O)N[C@@H](Cc1ccccc1)C(=O)NCC(=O)N1CCC[C@@H]1C(=O)N[C@@H](Cc1c[nH]c2ccccc12)C(=O)N[C@@H](Cc1ccc(O)cc1)C(=O)N1CCC[C@H]1C(=O)N[C@@H](C)C(=O)N[C@@H](CC(N)=O)C(=O)NCC(=O)N1CCC[C@H]1C(N)=O)[C@@H](C)O
For B4, the Kd turned out to be 96 µM with soluble human FcRn [14] and 5.8 µM with soluble human FcRn [15]. The IC50 with soluble human FcRn [16] is 52 µM.

B5: Peptide No. 194 (peptide)
peptide: QRFXTGHFGXYPCNGP
modifications: Pen at 4; X at 10 = D,L-Friedinger's lactam (dipeptide mimetic for Gly-Leu); disulfide; C-terminal amide
For the molecule B5, the IC50 in the test with soluble human FcRn [17] amounted to 4.9 µM.
On to AGGGCVTGHFGGIYCNTQGTGGGK-NH2 (disulfide 5-15 (inferred)) [SEQ ID NO:7], for which the Kd with soluble human FcRn [10] came to 34.7 µM; with soluble human FcRn [9], 5.2 µM.

B6: Peptide No. 236 (peptide)
peptide: RFVTGHFG[Sar][NMeL]YPA-NH2
modifications: N-terminus assumed
SMILES: CC(C)C[C@@H](C(=O)N[C@@H](Cc1ccc(O)cc1)C(=O)N1CCC[C@H]1C(=O)N[C@@H](C)C(N)=O)N(C)C(=O)CN(C)C(=O)CNC(=O)[C@H](Cc1ccccc1)NC(=O)[C@H](Cc1c[nH]cn1)NC(=O)CNC(=O)[C@@H](NC(=O)[C@@H](NC(=O)[C@H](Cc1ccccc1)NC(=O)[C@@H](N)CCCNC(=N)N)C(C)C)[C@@H](C)O
In the test with soluble human FcRn [14], B6 gave a Kd of 9 µM. Further, the IC50 in the test with soluble human FcRn [16] and with soluble human FcRn [18] was 37 µM each time.

B7: Peptide No. 216 (peptide)
peptide: QRFXTGHFGXYPCNGP
modifications: Pen at 4; X at 10 = L,L-Friedinger's lactam (dipeptide mimetic for Gly-Leu); disulfide; C-terminal amide
In the case of B7, the IC50 in the test with soluble human FcRn [17] is 19 µM.
For the molecule RF[Pen]TGHFG[Sar]YPCNGP-NH2 (disulfide 3-12 (inferred), printed without the Leu after Sar) [Peptide No. 147], the Kd with soluble human FcRn [19] was 0.35 µM; with soluble human FcRn [21] it was 0.058 µM. In the test with soluble human FcRn [20], this molecule gave an IC50 of 1 µM.
For RFXTGHFGGLYPCNGP (Pen at 3; NMeLeu at 10; disulfide; C-terminal amide) [Peptide No. 146], in that order: 0.28 µM, 0.059 µM and 2.1 µM.

Source of the values: US20070254831A1 (published 2007).
